Results from paper PMC3223699 (Cell Death & Disease, 2011).
Ends that are not written are not given here.

Experiments:
P. falciparum 3D7 = assay: Recovery of treated parasite culture after peptide removal; type: cell-based, Plasmodium falciparum; conditions: 50 μM (~EC50), removed at 4 h, then grown 24 h
P. falciparum = conditions: asexual stage P. falciparum; ref [30], [31]; cited from earlier work
[1] = biological target: recombinant PfClpQ, mature region (38-170 aa) (P. falciparum); assay: SPR

FIKQYDLKKYII [FI-peptide]
growth inhibition after peptide removal at 4 h (P. falciparum 3D7): < 20%

CCN(CC)CCCC(C)Nc1ccnc2cc(Cl)ccc12 (centres unmarked) [chloroquine]
apoptosis-like features (in words) (P. falciparum): loss of mitochondrial membrane potential (Δψm), activation of caspase-like cytseine proteases and nuclear DNA fragmentation

FIKQYDLKKYII [FI-peptide, 12-amino-acid synthetic peptide corresponding to the C terminus of PfClpY]
Kd [1]: 62.4 µM | koff [1]: 0.00976 s⁻¹ | kon [1]: 157 M⁻¹ s⁻¹
